This assay addresses DTR.

Diphtheria toxin (from UniProt P00588) came in with a death of cochlea outer hair cells in Prestin-P2A-DTR/+ mice after DT at P36 greater than 90%.
